According to publication PMC4649501 (2015):

T1: PDCD6 N-terminal domain peptide (Homo sapiens, Ca2+ (100 uM CaCl2))
T1 chain: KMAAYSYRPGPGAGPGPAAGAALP

B1: SCBD (Sorcin calcium-binding domain) 33-198 (protein)
chain: DPLYGYFAAVAGQDGQIDADELQRCLTQSGIAGGYKPFNLETCRLMVSMLDRDMSGTMGFNEFKELWAVLNGWRQHFISFDTDRSGTVDPQELQKALTTMGFRLSPQAVNSIAKRYSTNGKITFDDYIACCVKLRALTDSFRRRDTAQQGVVNFPYDDFIQCVMSV
B2: Sorcin (protein)
chain: MAYPGHPGAGGGYYPGGYGGAPGGPAFPGQTQDPLYGYFAAVAGQDGQIDADELQRCLTQSGIAGGYKPFNLETCRLMVSMLDRDMSGTMGFNEFKELWAVLNGWRQHFISFDTDRSGTVDPQELQKALTTMGFRLSPQAVNSIAKRYSTNGKITFDDYIACCVKLRALTDSFRRRDTAQQGVVNFPYDDFIQCVMSV
B3: Sorcin (protein)
chain: B2 chain
modifications: Ca2+ (100 uM CaCl2)
B4: SCBD (Sorcin calcium-binding domain) 33-198 (protein)
chain: B1 chain
modifications: Ca2+ (100 uM CaCl2)

Assays:
[1] = target: PDCD6 (Homo sapiens, UniProt O75340); assay: SPR
[2] = target: T1, PDCD6 N-terminal domain peptide; assay: SPR

PDCD6, sequence (O75340 2-191): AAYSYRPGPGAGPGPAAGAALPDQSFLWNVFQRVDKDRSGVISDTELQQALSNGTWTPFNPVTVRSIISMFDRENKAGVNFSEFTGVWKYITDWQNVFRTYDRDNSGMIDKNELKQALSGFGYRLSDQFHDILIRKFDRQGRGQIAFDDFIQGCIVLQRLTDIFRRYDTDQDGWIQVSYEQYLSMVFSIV

| Binder | Kd [1] [µM] | Kd [2] [µM] |
| --- | --- | --- |
| B1 | 5 | 6 |
| B2 | 12 | 5 |
| B3 | 3.5 | – |
| B4 | 3.5 | – |
